Reference: US20230212319A1, “NOVEL ANTIGEN BINDING DOMAINS AND SYNTHETIC ANTIGEN RECEPTORS INCORPORATING THE SAME” (University of Southern California, priority 2020, published 2023)

B1: 22143 (protein)
chain: MALPVTALLLPLALLLHAARPQVQLVESGGGLVQPGGSLRLSCAASGFTFTNHAMSWVRQAPGKGLELVSSISGNGRTTYYADSVKGRFTISRDISKNTLDLQMNSLRAEDTAVYYCAKDGGETLVDSRGQGTLVTVSSLEGGGGSGGGGSIEGGGGSGGGGSKVQLLESGGGLVQPGGSLRLSCAASGFIFSSYAMSWVRQAPGKGQEWVSGVSGTGVNTYYADSVKGRFTISRDNSKNTLYLQMNSLRAEDTAVYYCASGKGWDSGSWYEDYRGQGTLVTVSSGTGGGGSGGGGSGGGGSEFDIQMTQSPSSLSASVGDRVTITCKASDHINNWLAWYQQKPGQAPKLLIYGATTLETGVPSRFSGSGSGTDYTLTISSLQPEDFATYYCQQSWNTPWTFGQGTKLEIKRLEDLKNVFPPEVAVFEPSKAEIAHTQKATLVCLATGFYPDHVELSWWVNGKEVHSGVCTDPQPLKEQPALNDSRYCLSSRLRVSATFWQNPRNHFRCQVQFYGLSENDEWTQDRAKPVTQIVSAEAWGRADCGITSASYHQGVLSATILYEILLGKATLYAVLVSALVLMAMVKRKDSRGRAKRSGSGATNFSLLKQAGDVEENPGPTSATMDWIWRILFLVGAATGAHSGPQVQLQESGGGLAQAGGSLRLSCAASGRTFSMGWFRQAPGKEREFVAAITYSGGSPYYASSVRGRFTISRDNAKNTVYLQMNSLKPEDTAVYYCAANPTYGSDWNAENWGQGTQVTVSSGSGGGGSGGGGSGGGGSFEQVQLQQPGAELVKPGASVKMSCKASGYAFSSYWINWMKQKPGQGLEWIGQIYPGDGDTNYNGKFKGRATLTADTSSSTAYMQLSSLTSEDSAVYFCARSITTVVGCAMDYWGQGTSVTVSSTRIQNPDPAVYQLRDSKSSDKSVCLFTDFDSQTNVSQSKDSDVYITDKCVLDMRSMDFKSNSAVAWSNKSDFACANAFNNSIIPEDTFFPSSDVPCDVKLVEKSFETDTNLNFQNLSVIGFRILLLKVAGFNLLMTLRLWSSRAKRSGSGVKQTLNFDLLKLAGDVESNPGPSRGHMTEYKPTVRLATRDDVPRAVRTLAAAFADYPATRHTVDPDRHIERVTELQELFLTRVGLDIGKVWVADDGAAVAVWTTPESVEAGAVFAEIGPRMAELSGSRLAAQQQMEGLLAPHRPKEPAWFLATVGVSPDHQGKGLGSAVVLPGVEAAERAGVPAFLETSAPRNLPFYERLGFTVTADVEVPEGPRTWCMTRKPGA
B2: 22012 (protein)
chain: MDWIWRILFLVGAATGAHSQLQLQESGPGLVKPSETLSLTCTVSGGSVSSSSYYWGWIRQPPGKRLELIGSIYYGGSTYFNPSLKTRVTISVDTSKNQFSLKLSSVTAADTAVYYCAGGDTYGPVGQWPSDYRGQGTLVTVSSLEDLKNVFPPEVAVFEPSEAEISHTQKATLVCLATGFYPDHVELSWWVNGKEVHSGVCTDPQPLKEQPALNDSRYCLSSRLRVSATFWQNPRNHFRCQVQFYGLSENDEWTQDRAKPVTQIVSAEAWGRADCGFTSESYQQGVLSATILYEILLGKATLYAVLVSALVLMAMVKRKDSRGRAKRSGSGATNFSLLKQAGDVEENPGPTSMDWIWRILFLVGAATGAHSFEVQLLESGGGLIQPGGSLRLSCAASGFTFSSHAMTWVRQAPGKGLEWVSAISGSGDYTHYADSVKGRFTISRDNSKNTVYLQMNSLRAEDSAVYYCAKDEDGGSLLGHRGQGTLVTVSSTRIQNPDPAVYQLRDSKSSDKSVCLFTDFDSQTNVSQSKDSDVYITDKCVLDMRSMDFKSNSAVAWSNKSDFACANAFNNSIIPEDTFFPSPESSCDVKLVEKSFETDTNLNFQNLSVIGFRILLLKVAGFNLLMTLRLWSSRAKRSGSGVKQTLNFDLLKLAGDVESNPGPSRGHMTEYKPTVRLATRDDVPRAVRTLAAAFADYPATRHTVDPDRHIERVTELQELFLTRVGLDIGKVWVADDGAAVAVWTTPESVEAGAVFAEIGPRMAELSGSRLAAQQQMEGLLAPHRPKEPAWFLATVGVSPDHQGKGLGSAVVLPGVEAAERAGVPAFLETSAPRNLPFYERLGFTVTADVEVPEGPRTWCMTRKPGA
B3: 22124 (protein)
chain: MALPVTALLLPLALLLHAARPEVQLVESGGGLVQAGGSLRLSCAASGRTFSMGWFRQAPGKEREFVAAITYSGGSPYYADSVKGRFTISRDNAKNTVYLQMNSLKPEDTAVYYCAANPTYGSDWNAENWGQGTQVTVSSGGGGSGGGGSQLQLQESGPGLVKPSETLSLTCTVSGGSISSGDYYWGWIRQPPGKGLEWIGSISYSGSTYYNPSLKSRVTISVDTSRNQFSLKLSSVTAADTAVYYCTREDSSNWRSRGQGTLVTVSSGTGGGGSGGGGSGGGGSEFDIQMTQSPSSLSASVGDRVTITCKASDHINNWLAWYQQKPGQAPKLLIYGATTLETGVPSRFSGSGSGTDYTLTISSLQPEDFATYYCQQSWNTPWTFGQGTKLEIKRLEIQNPDPAVYQLRDSKSSDKSVCLFTDFDSQTNVSQSKDSDVYITDKCVLDMRSMDFKSNSAVAWSNKSDFACANAFNNSIIPEDTFFPSSDVPCDVKLVEKSFETDTNLNFQNLSVIGFRILLLKVAGFNLLMTLRLWSSRAKRSGSGVKQTLNFDLLKLAGDVESNPGPTSATMDWIWRILFLVGAATGAHSGPQVQLQESGGGLAQAGGSLRLSCAASGRTFSMGWFRQAPGKEREFVAAITYSGGSPYYASSVRGRFTISRDNAKNTVYLQMNSLKPEDTAVYYCAANPTYGSDWNAENWGQGTQVTVSSGSGGGGSGGGGSGGGGSFEQVQLQQPGAELVKPGASVKMSCKASGYAFSSYWINWMKQKPGQGLEWIGQIYPGDGDTNYNGKFKGRATLTADTSSSTAYMQLSSLTSEDSAVYFCARSITTVVGCAMDYWGQGTSVTVSSTREDLKNVFPPEVAVFEPSKAEIAHTQKATLVCLATGFYPDHVELSWWVNGKEVHSGVCTDPQPLKEQPALNDSRYCLSSRLRVSATFWQNPRNHFRCQVQFYGLSENDEWTQDRAKPVTQIVSAEAWGRADCGITSASYHQGVLSATILYEILLGKATLYAVLVSALVLMAMVKRKDSRGRAKRSGSGATNFSLLKQAGDVEENPGPSRGHMTEYKPTVRLATRDDVPRAVRTLAAAFADYPATRHTVDPDRHIERVTELQELFLTRVGLDIGKVWVADDGAAVAVWTTPESVEAGAVFAEIGPRMAELSGSRLAAQQQMEGLLAPHRPKEPAWFLATVGVSPDHQGKGLGSAVVLPGVEAAERAGVPAFLETSAPRNLPFYERLGFTVTADVEVPEGPRTWCMTRKPGA

Assays:
Type in all cases: cell-based
L363 cells = experiment: JNG assay, co-culture with L363 cells; details: co-culture with L363
Procedure, shortened: (§1)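 Jurkat-NFAT-GFP (JNG) cells stably expressing SAR constructs via lentiviral transduction and puromycin/blasticidin selection were cocultured with target cells at E:T ~1:2 for ~4–18 h. NFAT-driven GFP was measured by FACS versus parental JNG cells; scores +/- to 5+ denote ~5–50% GFP-positive cells.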

RS;411 = experiment: JNG assay, co-culture with RS;411 cells; details: co-culture with RS411
Protocol: Cellular supernatant is collected and assayed for the induction of cytokines (e.g., IL2).
JNG (Jurkat cells expressing EGFP under an NFAT promoter) were infected with lentiviral vectors encoding different single chain and multi-chain SARs by spinfection in the presence of 8 µg/ml of Polybrene® (Sigma, Catalog no. H9268). The Jurkat-NFAT-GFP cells are engineered in such a way that the IL-2 promoter, which carries NFAT binding sites, is cloned upstream of the GFP gene. These cells have been used to study signaling via TCR and CAR. The different SARs were stably expressed in Jurkat NFAT-GFP cells by lentiviral mediated gene transfer, followed by selection with puromycin or blasticidin. No drug selection was used in case the construct lacked an antibiotic resistance gene. The SAR-expressing Jurkat-NFAT-GFP cells were cocultured with the target cells at E:T ratio of approximately 1:2 for approximately 4 hours to 18 hours. When the interaction between SIRs and their target antigen results in activation of the NFAT pathway, GFP expression is induced. […] GFP expression was monitored by FACS analysis. The Jurkat-NFAT-GFP (parental) cells were used as control. The structure of different constructs can be determined based on their names. […] The sequence of the other constructs in the table can be similarly determined from their names and by referring to the different Tables of this disclosure that provide the names and SEQ ID NO of the different modules. Alternatively, the composition and modular architecture of the different SAR constructs can be determined from their sequences by bioinformatics tools, including using nucleic acid and amino acids homology searches. A SAR is considered positive in the assay in case the SAR expressing Jurkat-NFAT-GFP cells show greater % GFP positive cells when cultured with the target cell line as compared to parental Jurkat-NFAT-GFP cells. […] In general, the number +/-, +, 2+, 3+, 4+, 5+ refer to approximately 5%, 10%, 20%, 30%, 40% and 50% GFP positive cells. The % of GFP induction in the above assay is dependent not only the relative strength of the SAR but also, among other factors, on the relative level of expression of the SAR in the JNG cells and the relative level of expression of the target antigen in the target cell line. To control for the difference in gene transduction efficiency of the different SAR constructs, the experiment was conducted with JNG cells transduced with SAR constructs co-expressing a drug resistance gene (e.g., puromycin or PAC) followed by drug selection to generate a stable population of SAR-expressing cells. It is to be noted that the drug resistance gene (e.g., PAC) in the SAR constructs is optional and in vivo studies were conducted with SAR constructs lacking the PAC gene.

RAJI cells = experiment: JNG assay, co-culture with RAJI cells; details: JNG cells expressing construct, co-culture with Raji
Procedure, shortened: as §1

Nalm6 cells = experiment: JNG assay, co-culture with Nalm6 cells; details: co-culture with Nalm6
Procedure, shortened: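 GFP expression induced through the NFAT pathway was monitored by FACS once SAR-bearing Jurkat reporters had been cultured with target cells at an approximate 1:2 ratio for 4 to 18 hours; parental reporter cells served as the baseline.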

| Molecule | NFAT-GFP ASSAY: L363 (L363 cells) | NFAT-GFP ASSAY: RS411 (RS;411) | NFAT-GFP ASSAY: Raji (RAJI cells) | NFAT-GFP ASSAY: Nalm6 (Nalm6 cells) |
| --- | --- | --- | --- | --- |
| B1 | 2+ (refer to approximately 5%, 10%, 20%, 30%, 40% and 50% GFP positive cells) | 2+ (refer to approximately 5%, 10%, 20%, 30%, 40% and 50% GFP positive cells) | 2+ (refer to approximately 5%, 10%, 20%, 30%, 40% and 50% GFP positive cells) |  |
| B2 | + (refer to approximately 5%, 10%, 20%, 30%, 40% and 50% GFP positive cells) | +/- (refer to approximately 5%, 10%, 20%, 30%, 40% and 50% GFP positive cells) |  |  |
| B3 |  | 2+ (refer to approximately 5%, 10%, 20%, 30%, 40% and 50% GFP positive cells) |  | 2+ (refer to approximately 5%, 10%, 20%, 30%, 40% and 50% GFP positive cells) |
